Consider 2 substances from PMC3791423.

Assay [1] has as its target single-chain linked PspF_(1–275) WT/W56A dimer (E. coli) (UniProt P37344). Put plainly: SEC; linked PspF_(1–275) dimers injected at 70 μM, without and with PspA_(1–186), no nucleotide, 4 °C, Yarra Sec-S3000 column; apparent oligomers. On the technique in general: In gel filtration, larger molecules generally elute earlier.
In assay [2] the target is PspA_(1–186) (E. coli) (UniProt P0AFM6).
Assay [3] addresses single-chain linked PspF_(1–275) WT/WT dimer (E. coli) (UniProt P37344). The assay can be described thus: SEC; linked PspF_(1–275) dimers injected at 70 μM, without and with PspA_(1–186), no nucleotide, 4 °C, Yarra Sec-S3000 column; apparent oligomers.
Assay [4] has as its target PspA_(1–186) (E. coli) (UniProt P0AFM6). The assay is described as above.

Take “single-chain linked PspF_(1–275) WT/W56A dimer (from UniProt P37344 1-275; P37344 1-275)”: the stoichiometry N (PspF (1–275) subunits) in assay [1] stood at 6. In addition, in assay [2], the reduction of RPO formation (supercoiled nifH promoter) in the presence of PspA (1–186) came out at 10%.

With “single-chain linked PspF_(1–275) WT/WT dimer (from UniProt P37344 1-275; P37344 1-275)”, the stoichiometry N (PspF (1–275) subunits) in assay [3] is 6. Moreover, the stoichiometry N (PspA (1–186) subunits per PspF hexamer) in assay [4] came out at 6. The reduction of RPO formation (supercoiled nifH promoter) in the presence of PspA (1–186) in assay [2] turned out to be 100%.
